{"source": "patent US20240327543A1", "about": "(SHENGHE CHINA BIOPHARMACEUTICAL, published 2024)", "key": {"Human-NKP30-His [1]": {"target": "T1, Human-NKP30-His (human, UniProt O14931 19-135, limits assumed)", "T1 construct": "Coated on the ELISA plate at 0.5 µg/mL; also called NKP30 protein; not shown: His tag", "T1 sequence (looked up)": "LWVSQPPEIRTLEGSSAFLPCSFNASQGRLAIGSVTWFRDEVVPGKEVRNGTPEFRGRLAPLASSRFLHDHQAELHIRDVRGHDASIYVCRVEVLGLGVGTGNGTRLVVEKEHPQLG", "test": "ELISA, plate coated with Human-NKP30-His, detection with HRP goat anti-human IgG-Fc", "method": "(§1) Human-NKP30-His was diluted to 0.5 μg/mL with PBS buffer at pH 7.4, added into the 96-well ELISA plate at 100 μL per well, coated overnight at 4° C., and blocked with 1% BSA blocking solution for 1 hour. The plate was washed 3 times with PBST, and the constructed antibodies were diluted to 10 μg/mL with 0.5% BSA sample diluent as the starting concentration, and then diluted by 3-fold gradient (11 gradients in total). A negative control (blank well and IgG1 isotype control) and a positive control were set, and the positive control was a NKP30 humanized antibody (sequence shown in SEQ ID No.32), and incubated at 37° C. for 1 h at 100 μL per well. […] The absorbance value of each well in the 96-well plate was determined by selecting the wavelength of 450 nm and the reference wavelength of 570 nm on a multifunctional enzyme marker, and the absorbance value (OD)=OD₄₅₀ₙₘ−OD₅₇₀ₙₘ. The logarithm of the concentration of the constructed antibodies were taken as the abscissa, and the measured absorbance value of each well was taken as the ordinate, and the Sigmoidaldose-response (Variable Slope) method (GraphPad Prism software, GraphPad Software, San Diego, California) was selected for nonlinear regression to obtain the binding curve of the target antibody to NKP30 protein."}, "Human-NKP30-His [2]": {"target": "T1, Human-NKP30-His", "test": "ELISA, plate coated with Human-NKP30-His, detection with HRP goat anti-human IgG-Fc", "method": "as §1", "remark": "listed apart in the source"}}, "note": "Like-named read-outs stand apart in the source and are kept apart here.", "data": [{"binder": "NKP30 humanized antibody (SEQ ID No.32) (antibody, human IgG4 S228P, V domains shown, It was detected with anti-human IgG-Fc; also called positive control; NKP30 monoclonal antibody) VH: EVQLVESGGGLVQPGGSLRLSCAASGITFSRSVMGWFRQAPGKLRELVAGITSDDNTDYADSVKGRFTISRDNSKNTLYLQMNSLRAEDTAVYYCNILPDSRLGWGQGTLVTVSS", "values": [{"measurement": "EC50 (read off the curve)", "setting": "Human-NKP30-His [1]", "result": "~0.03", "unit": "µg/mL"}, {"measurement": "EC50 (read off the curve)", "setting": "Human-NKP30-His [2]", "result": "~0.03", "unit": "µg/mL"}]}]}
